Results published in patent US8580549B2, “Esterases for separating plastics” (Henkel KGaA, priority 2005, dated 2013).

B1: pNB-Est13: para-nitrobenzyl esterase, enzyme according to Seq ID No. 12, Bacillus licheniformis DSM13 (gi 52346943) (protein, listed as Bacillus licheniformis)
chain: MYDTTVETRFGKLKGRAENGVRIFKGVPYAKPPVGDLRFREPQRMEAWEGELDAFQFGPVCPQPDGVLPESAGVQKSEDCLYLNVYAPEEADGDLPVMVWIHGGAFYRGAGSEPLYDGTQLAKQGKVIVVTINYRLGPFGFLHLSSIDDSYSSNLGLLDQIAALEWVKDNIAFFGGDRHHITVFGESAGSMSIASLLAMPKAKGLFQQAIMESGASATMSDKLAKAAAERFLRILDIDHHHLERLHDVSDQELLEAADQLRTLMGENIFELIFLPALDEKTLPLKPEVAVAKGAAKEINLLIGTNRDEGVLFFPSDSDLLPESKINEILEEYMGKEAAEAASSLYPRSLEGHVDMMTDLIFWHPSVVFASAQSRYASVFMYRFDWHADSEQPPFNKAAHGLEIPFVFGNMDILEQLTGTKAGEEAQLLAEQIQAAWVSFARSGNPSTDDVSWPDYDEDSRKTLIFDQEVAVESDPYSDKRKMLTAPNPQI
B2: pNB-Est17: para-nitrobenzyl esterase, enzyme according to Seq ID No. 1, from Bacillus subtilis (17A1), 489 amino acids (protein, listed as Bacillus subtilis)
chain: MTHQIVTTQYGKVKGTTENGVHKWKGIPYAKPPVGQWRFKAPEPPEVWEDVLDATAYGPICPQPSDLLSLSYTELPRQSEDCLYVNVFAPDTPSQNLPVMVWIHGGAFYLGAGSEPLYDGSKLAAQGEVIVVTLNYRLGPFGFLHLSSFDEAYSDNLGLLDQAAALKWVRENISAFGGDPDNVTVFGESAGGMSIAALLAMPAAKGLFQKAIMESGASRTMTKEQAASTSAAFLQVLGINEGQLDKLHTVSAEDLLKAADQLRIAEKENIFQLFFQPALDPKTLPAEPEKAISEGAASGIPLLIGTTRDEGYLFFTPDSDVHSQETLDAALEYLLGKPLAEKAADLYPRSLESQIHMMTDLLFWRPAVAYASAQSHYAPVWMYRFDWHPKKPPYNKAFHALELPFVFGNLDGLERMAKAEITDEVKQLSHTIQSAWITFAKTGNPSTEAVNWPTYHEETRETLILDSEITIENDPESEKRQKLFPSKGE
B3: pNB-Est19: para-nitrobenzyl esterase, enzyme according to Seq ID No. 2, from Bacillus licheniformis (19C5), 489 amino acids (protein, listed as Bacillus licheniformis)
chain: MTHQIVTTQYGKVKGTTENGVHKWKGIPYAKPPVGQWRFKAPEPPEVWEDVLDATAYGPICPQPSDLLSLSYTELPRQSEDCLYVNVFAPDTPSQNLPVMVWIHGGAFYLGAGSEPLYDGSKLAAQGEVIVVTLNYRLGPFGFLHLSSFDEAYSDNLGLLDQAAALKWVRENISAFGGDPDNVTVFGESAGGMSIAALLAMPAAKGLFQKAIMESGASRTMTKEQAASTSAAFLQVLGINEGQLDKLHTVSAEDLLKAADQLRIAEKENIFQLFFQPALDPKTLPAEPEKAISEGAASGIPLLIGTTRDEGYLFFTPDSDVHSQETLDAALEYLLGKPLAEKAADLYPRSLESQIHMMTDLLFWRPAVAYASAQSHYAPVWMYRFDWHPKKPPYNKAFHALELPFVFGNLDGLERMAKAEITDEVKQLSHTIQSAWITFAKTGNPSTEAVNWPTYHEETRETLILDSEITIENDPESEKRQKLFPSKGE

Assays:
Type in all cases: biochemical
[1] = Esterase activity by hydrolysis of bis-(p-methylbenzoic acid) ester of ethylene glycol (titration); conditions: titrimetric, 30° C., tris/HCl pH 9.0; for Specific Activity / vMax: mean of three measurements
Protocol: 2.4.2 Determination of the Enzymatic Activity
The cleavage of the bis-(p-methylbenzoic acid) ester of ethylene glycol catalyzed by the inventive enzymes affords 2 equivalents of 4-methylbenzoic acid and ethylene glycol (see FIG. 2).
For the preparation of the enzyme assay, the desired amount of substrate was mixed with 0.5 g Triton X100 and dissolved with heating in 50 mL ethanol (99%, denatured). Once all the substrate was dissolved, the solution was added to 50 mL buffer (2 mM tris/HCl buffer; pH 9.0) with intense stirring by Ultra-Turrax. This solution was then stirred at room temperature for at least 12 hours in order to remove a large part of the added ethanol. The thus-prepared substrate solution was immediately titrated. The reaction buffer was pre-incubated at 30° C. for 10 minutes.
Different final concentrations (0.67 mM to 50 mM) were used in a total reaction volume of 2 mL including enzyme. After addition of the enzyme, the NaOH consumption (concentration determination by triple titration with oxalic acid) with the titration apparatus 702 SAT (METROHM Ltd., Switzerland)) at a reaction temperature of 30° C. was plotted. One unit is defined as the enzyme activity that releases 1 μmol acid per minute.
In this and the subsequent examples, the following abbreviations are used for the tested esterases: enzyme according to Seq ID No. 12 (pNB-Est13), enzyme according to Seq ID No. 2 (pNB-Est19), enzyme according to Seq ID No. 1 (pNB-Est17). The data obtained for the cited esterases in Table 2 were determined by titrimetric measurements and represent mean values from: three independent measurements with a relative standard deviation of less than 5%.

[2] = Substrate specificity to para-nitrophenyl esters: p-NP-butyrate; conditions: p-NP-butyrate 0.8 mM, phosphate buffer pH 8, room temperature, 410 nm
Protocol: (§1) For the determination of chain length specificities of the investigated esterases, p-nitrophenyl esters with different chain lengths were used as the substrate for the spectroscopic measurements of activity. To the p-nitrophenyl esters dissolved in 10 mL isopropanol were added 90 mL phosphate buffer (pH 8, disodium hydrogen phosphate and potassium dihydrogen phosphate). The final concentration of the substrate was 0.8 mM. Each 990 μL buffer-substrate mixture was mixed with 10 μL of the enzyme sample and incubated at room temperature for one minute. The increase in absorption at 410 nm was then measured (UV MC^2, SAFAS, Monaco). The enzyme activity was calculated using a molar extinction coefficient of 17100 [M^−1cm^−1], wherein 1 unit was defined as the quantity of enzyme that released 1 μmol p-nitrophenol per minute.
(§2) The data in Table 3 represent mean values from three independent measurements with a relative standard deviation of less than 10%.

[3] = Substrate specificity to para-nitrophenyl esters: p-NP-caproate; conditions: p-NP-caproate 0.8 mM, phosphate buffer pH 8, room temperature, 410 nm
Protocol: as §1, §2

[4] = Substrate specificity to para-nitrophenyl esters: p-NP-caprylate; conditions: p-NP-caprylate 0.8 mM, phosphate buffer pH 8, room temperature, 410 nm
Protocol: as §1, §2

[5] = Substrate specificity to para-nitrophenyl esters: p-NP-caprate; conditions: p-NP-caprate 0.8 mM, phosphate buffer pH 8, room temperature, 410 nm
Protocol: as §1, §2

[6] = Substrate specificity to para-nitrophenyl esters: p-NP-laurate; conditions: p-NP-laurate 0.8 mM, phosphate buffer pH 8, room temperature, 410 nm
Protocol: as §1, §2

[7] = Substrate specificity to para-nitrophenyl esters: p-NP-myristate; conditions: p-NP-myristate 0.8 mM, phosphate buffer pH 8, room temperature, 410 nm
Protocol: as §1, §2

[8] = Substrate specificity to para-nitrophenyl esters: p-NP-palmitate; conditions: p-NP-palmitate 0.8 mM, phosphate buffer pH 8, room temperature, 410 nm
Protocol: as §1, §2

[9] = Substrate specificity to para-nitrophenyl esters: p-NP-stearate; conditions: p-NP-stearate 0.8 mM, phosphate buffer pH 8, room temperature, 410 nm
Protocol: as §1, §2

[10] = Titrimetric Michaelis-Menten kinetics, hydrolysis of dimethyl phthalate; conditions: substrate DMP; for kcat: assumes added enzyme = active enzyme; for vMax: titrimetric, 30° C., pH 9
Protocol: (§3) The enzyme activities of the esterases were measured with the titration apparatus 702 SAT (METROHM Ltd., Switzerland) for various substrates of the phthalate family (FIG. 4). The phthalates were dissolved in diethyl ether with 0.5 g Triton X100. The diethyl ether was then removed under a stream of nitrogen. 50 ml buffer (2 mM Tris/HCl, pH 9) was added, homogenized by ultrasound and used in different final concentrations (0.3 mM to 100 mM) in a total reaction volume of 2 mL (including enzyme). The reaction buffer was pre-incubated at 30° C. for 10 minutes. After addition of the enzyme, the NaOH consumption (concentration determination by triple titration with oxalic acid) at a reaction temperature of 30° C. was plotted. One unit is defined as the enzyme activity that releases 1 μmol acid per minute.
(§4) Titrimetric measurements were carried out to determine the kinetic constants vmax, kM, kcat and kcat/kM of the three para-nitrobenzyl esterases pNB-Est17, pNB-Est19 and pNB-Est13 towards different phthalates and terephthalates. The enzyme activities were determined for different substrate concentrations and evaluated according to MICHAELIS-MENTEN (see FIGS. 5 to 7). The measured kM- and vmax values and the added enzyme concentrations were used to calculate the kinetic constants (kcat and k2) and the catalytic efficiency (kcat/kM)—under the assumption that the added enzyme concentration was the same as the concentration of the active enzyme.
(§5) The data in FIGS. 5 to 7 and Tables 5 to 7 represent mean values from three independent titrimetric measurements with a relative standard deviation of less than 5%. The calculation of kcat and kcat/kM was based on the assumption that the added enzyme concentration was the same as the concentration of the active enzyme.

[11] = Titrimetric Michaelis-Menten kinetics, hydrolysis of dimethyl isophthalate; conditions: substrate DMIP; for kcat: assumes added enzyme = active enzyme; for vMax: titrimetric, 30° C., pH 9
Protocol: as §3, §4, §5

[12] = Titrimetric Michaelis-Menten kinetics, hydrolysis of dimethyl terephthalate; conditions: substrate DMT; for kcat: assumes added enzyme = active enzyme; for vMax: titrimetric, 30° C., pH 9
Protocol: as §3, §4, §5

[13] = Titrimetric Michaelis-Menten kinetics, hydrolysis of diethyl phthalate; conditions: substrate DEP; for kcat: assumes added enzyme = active enzyme; for vMax: titrimetric, 30° C., pH 9
Protocol: as §3, §4, §5

[14] = Titrimetric Michaelis-Menten kinetics, hydrolysis of dibutyl phthalate; conditions: substrate DBP; for kcat: assumes added enzyme = active enzyme; for vMax: titrimetric, 30° C., pH 9
Protocol: as §3, §4, §5

[15] = Titrimetric Michaelis-Menten kinetics, hydrolysis of diethyl terephthalate; conditions: substrate DET; for kcat: assumes added enzyme = active enzyme; for vMax: titrimetric, 30° C., pH 9
Protocol: as §3, §4, §5

Molecule	kcat [1] [s⁻¹]	Specific Activity [1] [µmol/min/mg]	vMax [1] [µmol/min]	Specific Activity [2] [U/mg]	Specific Activity [3] [U/mg]	Specific Activity [4] [U/mg]	Specific Activity [5] [U/mg]	Specific Activity [6] [U/mg]	Specific Activity [7] [U/mg]	Specific Activity [8] [U/mg]	Specific Activity [9] [U/mg]	kcat [10] [s⁻¹]	vMax [10] [U/mg]	kcat [11] [s⁻¹]	vMax [11] [U/mg]	kcat [12] [s⁻¹]	vMax [12] [U/mg]	kcat [13] [s⁻¹]	vMax [13] [U/mg]	vMax [14] [U/mg]	also measured
B1	9358	2.87	1.801	22.4	50.5	13.0	4.4	1.3	<1	<1	<1	29735	9.11	90267	27.67	14784	4.53	10468	3.21	2.87	kcat [14]: 9356 s⁻¹; kcat [15]: 12574 s⁻¹; vMax [15]: 3.57 U/mg
B2	5177	1.60	0.642	196.3	102.7	73.2	10.2	3.4	<1	<1	<1	45672	14.09	38880	11.99	60028	18.52	31065	9.57	48.03	kcat [14]: 155676 s⁻¹; kcat [15]: 90998 s⁻¹; vMax [15]: 28.06 U/mg
B3	3838	1.19	0.385	234.8	249.6	83.6	3.9	4.0	1.3	<1	<1	50970	15.76	27637	8.55	50718	15.69	23265	7.20	40.69	kcat [15]: 99411 s⁻¹; vMax [15]: 30.79 U/mg
